From US20200347146A1 (I MAB BIOPHARMA US, published 2020) come the findings set out here.

Assay [1] concerns the target T1, human CD73 protein (soluble) (human, UniProt P21589 27-549, limits assumed).
T1 construct: its species is not restated there; also called soluble CD73; 5'-nucleotidase
T1 sequence (looked up): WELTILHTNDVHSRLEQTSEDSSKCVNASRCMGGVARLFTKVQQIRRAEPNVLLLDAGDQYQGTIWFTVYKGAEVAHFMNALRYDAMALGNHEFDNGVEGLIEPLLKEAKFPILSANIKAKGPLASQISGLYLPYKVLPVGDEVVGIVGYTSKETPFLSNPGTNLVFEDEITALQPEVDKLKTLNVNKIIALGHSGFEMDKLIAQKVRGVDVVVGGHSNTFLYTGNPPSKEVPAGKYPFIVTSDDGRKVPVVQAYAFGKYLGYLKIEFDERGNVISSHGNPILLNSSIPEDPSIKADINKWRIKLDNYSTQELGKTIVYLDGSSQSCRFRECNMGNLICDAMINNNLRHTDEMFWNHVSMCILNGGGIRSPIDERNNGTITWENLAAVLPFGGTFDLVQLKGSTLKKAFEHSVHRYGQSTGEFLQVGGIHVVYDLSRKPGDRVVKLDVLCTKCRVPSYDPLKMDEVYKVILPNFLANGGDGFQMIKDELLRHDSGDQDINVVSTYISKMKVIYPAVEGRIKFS
In words: ELISA, human CD73 coated on the plate, anti-human Fc HRP detection. On the procedure:
Plated were coated with 100 μl of 1 μg/ml human CD73 protein overnight. The samples were blocked with 1% BSA in PBST for 1 hr, washed with PBST 3×. […] Binding with anti-hu Fc HRP was at 1:10000 in PBST, RT for 30 min, wash with PBST 3×. 100 μl of TMB and 100 μl of HCl were then added.
(In general: In an ELISA, binding on a coated surface is turned into a signal by an enzyme label.)

The target of assay [2] is T2, CD73 on the surface of A375 cells (UniProt P21589 27-549, limits assumed).
T2 construct: whole, on cells; also called cell surface CD73
T2 sequence (looked up): T1 sequence (looked up)
The experiment in a line: flow cytometry on A375 cells, AF633 anti-human Fc detection. On the procedure: A375 cells that constitutively expressed CD73 on the surface were used in this example. 1×10⁵ A375 cells/well were suspended in FACS buffer. Antibodies diluted from 10 nM by 2-fold, 100 μl into each well, 4° C. for 30 min. The samples were washed with FACS buffer for 1×. AF633-anti hu Fc was added for binding for 30 min at 4° C., and washed with FACS buffer for 1×.
On the technique in general: In flow cytometry, cells or beads pass a laser one at a time.

In assay [3] the target is T3, human PD-L1 on PD-L1 positive Raji cells (human, UniProt Q9NZQ7 19-290).
T3 construct: whole, on cells; also called cell surface PD-L1; PD-L1+ cells
T3 sequence (Q9NZQ7 19-290): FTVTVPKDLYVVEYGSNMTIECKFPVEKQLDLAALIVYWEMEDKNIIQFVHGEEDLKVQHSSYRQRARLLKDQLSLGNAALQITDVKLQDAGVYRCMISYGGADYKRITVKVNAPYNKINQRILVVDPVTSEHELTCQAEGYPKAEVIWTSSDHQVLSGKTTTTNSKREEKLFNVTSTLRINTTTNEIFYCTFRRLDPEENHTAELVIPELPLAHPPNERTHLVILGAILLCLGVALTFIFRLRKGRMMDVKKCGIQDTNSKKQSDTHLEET
In words: flow cytometry on PD-L1 positive Raji cells, AF633 anti-human Fc detection.

Assay [4] addresses T4, human PD-L1 protein (soluble) (human, UniProt Q9NZQ7 19-238, limits assumed).
T4 construct: also called soluble PD-L1
In words: ELISA, human PD-L1 coated on the plate, anti-human Fc HRP detection.

T4 sequence (Q9NZQ7 19-238 limits assumed): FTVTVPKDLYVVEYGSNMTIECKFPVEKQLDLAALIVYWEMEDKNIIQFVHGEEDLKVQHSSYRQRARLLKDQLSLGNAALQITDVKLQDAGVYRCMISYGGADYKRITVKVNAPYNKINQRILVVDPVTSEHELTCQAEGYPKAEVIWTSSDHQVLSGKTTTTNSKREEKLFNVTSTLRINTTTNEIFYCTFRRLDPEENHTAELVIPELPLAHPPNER

B1: hu309 (monospecific anti-CD73 antibody with the 309 VH and 309 VL) (antibody, V domains shown)
VH: EVQLQESGPGLVKPSETLSLTCAVSGYSITSGYYWNWIRQPPGKKLEWMGYINYGGSNGYNPSLKSRITISRDTSKNQFSLKLSSVTAADTAVYYCARDYDAYYEALDDWGQGTTVTVSS
VL: EIVLSQSPATLSLSPGERATLSCRASSRVNYMHWYQQKPGQSPRPWISATSNLASGVPARFSGSGSGTSYTLTISSLEPEDFAVYYCQQWSSNPPTFGGGTKVEIK
notes: it was detected with anti-human Fc
In the case of B1, the binding result in assay [1] and in assay [2] was “binds” in each case.

B2: H12(PDL1) (monospecific anti-PD-L1 antibody with the H12 VH and H12 VL) (antibody, V domains shown)
VH: EVQLVESGGGLVQPGGSLRLSCAASGFTFSSYDMSWVRQAPGKSLEWVATISDAGGYIYYRDSVKGRFTISRDNAKNSLYLQMNSLRDEDTAVYICARELPWRYALDYWGQGTTVTVSS
VL: DIQMTQSPSSLSASVGDRVTITCKASQDVTPAVAWYQQKPGKAPKLLIYSTSSRYTGVPSRFSGSGSGTDFTFTISSLQPEDIATYYCQQHYTTPLTFGQGTKLEIK
notes: it was detected with anti-human Fc; also called PD-L1 antibody H12
Consider B2, for which the binding result in assay [3] and in assay [4] was “binds” throughout.
